This test addresses T1, human prothrombin (human, UniProt P00734 44-622).
T1 construct: also called PT
The experiment in a line: affinity chromatography of human citrate-plasma, immunoblot with anti-prothrombin. A general note: A western blot detects proteins with antibodies after separation by electrophoresis.

B1: R domain of Coa Newman with C-terminal Strep tag (RST) (other)
chain: EARPRFNKPSETNAYNVTTHANGQVSYGARPTYKKPSETNAYNVTTHANGQVSYGARPTQNKPSKTNAYNVTTHGNGQVSYGARPTQNKPSKTNAYNVTTHANGQVSYGARPTYKKPSKTNAYNVTTHADGTATYG
notes: Encoded by plasmid pET15b-rST; also called repeat (R) domain; not shown: C-terminal Strep tag
Take B1: the binding result was “no binding”.

B2: full-length strep-tagged Coa (CoaST) (other)
chain: IVTKDYSGKSQVNAGSKNGTLIDSRYLNSALYYLEDYIIYAIGLTNKYEYGDNIYKEAKDRLLEKVLREDQYLLERKKSQYEDYKQWYANYKKENPRTDLKMANFHKYNLEELSMKEYNELQDALKRALDDFHREVKDIKDKNSDLKTFNAAEEDKATKEVYDLVSEIDTLVVSYYGDKDYGEHAKELRAKLDLILGDTDNPHKITNERIKKEMIDDLNSIIDDFFMETKQNRPKSITKYNPTTHNYKTNSDNKPNFDKLVEETKKAVKEADDSWKKKTVKKYGETETKSPVVKEEKKVEEPQAPKVDNQQEVKTTAGKAEETTQPVAQPLVKIPQGTITGEIVKGPEYPTMENKTVQGEIVQGPDFLTMEQSGPSLSNNYTNPPLTNPILEGLEGSSSKLEIKPQGTESTLKGTQGESSDIEVKPQATETTEASQYGPRPQFNKTPKYVKYRDAGTGIREYNDGTFGYEARPRFNKPSETNAYNVTTHANGQVSYGARPTYKKPSETNAYNVTTHANGQVSYGARPTQNKPSKTNAYNVTTHGNGQVSYGARPTQNKPSKTNAYNVTTHANGQVSYGARPTYKKPSKTNAYNVTTHADGTATYGPRVTK
notes: Purified over Strep-Tactin-Sepharose; Used in the plasma pull-down and in the prothrombin and fibrinogen interference ELISAs; not shown: Strep tag
For the molecule B2, the binding result was “binds”.

Source of the values: patent publication US20190112342A1 (UNIVERSITY OF CHICAGO, published 2019).
